Tests used:
[1] = biological target: T1, murine IL-13 (murine)
T1 sequence: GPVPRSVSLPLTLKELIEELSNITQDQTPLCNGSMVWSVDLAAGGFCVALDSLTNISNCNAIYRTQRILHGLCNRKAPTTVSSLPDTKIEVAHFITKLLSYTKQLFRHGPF

[2] = biological target: T1, murine IL-13 (murine); remark: listed apart in the source
[3] = biological target: human IL-13 (human)
Chain of human IL-13 (human) (chain, as listed by the source): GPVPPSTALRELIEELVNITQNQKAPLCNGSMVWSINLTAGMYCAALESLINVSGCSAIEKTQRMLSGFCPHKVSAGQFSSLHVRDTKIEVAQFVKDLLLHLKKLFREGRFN

B1: BAK209B11 scFv (scFv, V domains shown)
VH: VQLQESGGGGLVQPGGSLRLSCAASGFTFSSYGMSWVRQAPGKGLEWVSSISASGDSTFYADSVKGRFTISRDNNKNMVFLQVNSLRADDTAVYFCAKDWSQWLVGDAFDVWGRGTTVTVSS
VL: DIQLTQSPSTLSASVGDRVTITCRASQSVSLWVAWYQQRPGKAPKLLIYDGSTLQSGVPARFSGSGSGTEFTLTISSLQPDDFATYYCQQYKTFSTFGQGTKVEIKR
[1]
  IC50, TF-1 cell proliferation: 0.185 µM

B2: BAK209B11 human IgG4 (antibody, V domains shown)
VH: B1 VH
VL: B1 VL
[2]
  IC50, B9 cell proliferation: 0.000776 µM

B3: BAK278D6 scFv (scFv, V domains shown)
VH: EVQLVQSGAEVKKPGASVKVSCKASGYTFRNYGLSWVRQAPGQGLEWMGWISANNGDTNYGQEFQGRITMTTETSTNTAHMELRSLRSDDTAVYYCVRDSSSNWARWFFDLWGKGTMVTVSS
VL: SYVLTQPPSVSVAPGQTARIPCGGNNIGSKLVHWYQQKPGQAPVLVVYDDGDRPSGIPERFSGSNSGNTATLTISRIDAGDEADYYCQVWDTGSDPVVFGGGTKLTVL
[3]
  IC50, TF-1 proliferation (Mean TF1): 0.044 µM

Source: US7935343B2
